Test results published in patent CN111378040A (UNIV SHENZHEN, dated 2020).

What was measured:
ROR2膜蛋白 = biological target: T1, ROR2膜蛋白 (UniProt Q01974 34-943, limits assumed); assay: flow cytometry on T47D cells (ROR2 positive) against 231 cells (ROR2 negative), 10ug/ml
T1 construct: whole, on cells; Endogenous ROR2 of T47D cells and of cells from human patients; also called ROR2 on T47D cells; ROR2 on patient blood cancer cells and lymphoma PDX tumour cells

带有His标签的人源的ROR2胞外端 = biological target: T2, 带有His标签的人源的ROR2胞外端 (human, UniProt Q01974 34-403); assay: immunoblot, lysate of 293T-ROR2-KO cells transfected with His-tagged human ROR2ex, 5ug/ml
T2 construct: extracellular domain; Denatured cell lysate in an immunoblot; it is put last only for want of a statement; also called human ROR2ex; humanROR2ex; not shown: His tag

内源性的ROR2 (293T细胞) = biological target: T3, 内源性的ROR2 (293T细胞) (UniProt Q01974 34-943); assay: immunoprecipitation from 293T cell lysate, blot with Santa Cruz ROR2 antibody sc-374174
T3 construct: Whole endogenous protein in cell lysate, used for immunoprecipitation; also called endogenous ROR2 protein of ROR2-positive 293T cells

Measured: binding result

T2 sequence (Q01974 34-403): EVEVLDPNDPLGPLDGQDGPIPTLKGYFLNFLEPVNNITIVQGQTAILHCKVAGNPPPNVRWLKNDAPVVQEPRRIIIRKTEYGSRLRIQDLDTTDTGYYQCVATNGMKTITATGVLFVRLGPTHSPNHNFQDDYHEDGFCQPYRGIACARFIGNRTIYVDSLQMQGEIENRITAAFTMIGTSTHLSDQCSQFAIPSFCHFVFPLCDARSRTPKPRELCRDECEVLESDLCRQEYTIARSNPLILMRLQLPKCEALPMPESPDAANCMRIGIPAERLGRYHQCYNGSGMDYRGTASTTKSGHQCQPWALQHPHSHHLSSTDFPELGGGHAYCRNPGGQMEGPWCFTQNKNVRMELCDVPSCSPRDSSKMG
T3 sequence (Q01974 34-943 limits assumed): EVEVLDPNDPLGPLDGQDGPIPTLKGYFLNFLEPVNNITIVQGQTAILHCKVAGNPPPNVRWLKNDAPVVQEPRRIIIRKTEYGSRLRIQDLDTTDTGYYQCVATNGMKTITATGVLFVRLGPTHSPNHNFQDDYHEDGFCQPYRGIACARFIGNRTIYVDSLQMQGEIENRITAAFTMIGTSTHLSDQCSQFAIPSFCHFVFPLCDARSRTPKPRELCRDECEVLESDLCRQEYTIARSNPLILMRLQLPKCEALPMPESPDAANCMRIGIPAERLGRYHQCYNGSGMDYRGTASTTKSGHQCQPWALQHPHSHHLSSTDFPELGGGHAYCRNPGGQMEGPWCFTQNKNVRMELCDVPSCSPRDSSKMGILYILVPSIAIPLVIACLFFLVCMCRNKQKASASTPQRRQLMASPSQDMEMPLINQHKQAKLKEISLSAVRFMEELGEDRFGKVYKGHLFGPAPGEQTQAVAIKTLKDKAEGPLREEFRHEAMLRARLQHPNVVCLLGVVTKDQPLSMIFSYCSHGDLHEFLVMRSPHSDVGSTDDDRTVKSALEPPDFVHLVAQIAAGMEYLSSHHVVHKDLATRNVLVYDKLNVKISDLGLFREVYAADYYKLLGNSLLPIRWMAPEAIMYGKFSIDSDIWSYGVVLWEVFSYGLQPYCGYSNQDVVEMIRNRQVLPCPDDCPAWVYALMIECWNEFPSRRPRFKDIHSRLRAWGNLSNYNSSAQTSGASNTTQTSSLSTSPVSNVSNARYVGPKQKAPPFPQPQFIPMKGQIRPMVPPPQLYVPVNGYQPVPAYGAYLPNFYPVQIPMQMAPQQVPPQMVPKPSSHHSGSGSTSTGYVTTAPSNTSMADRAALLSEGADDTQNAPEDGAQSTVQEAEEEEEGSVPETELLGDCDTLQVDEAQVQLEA
T1 sequence (Q01974 34-943 limits assumed): as above

B1: B22嵌合抗体 (antibody, human IgG1, kappa, V domains shown)
VH: QVQLQQPGAALVKPGASVKLSCKASGYTFTNYWIQWMKQRPGQGLEWIGEINPSNGRTDYNEKFKNRATLTVDNSSTTAYMQLSSLTSEDSAVYYCANYRPGYWGQGTSVTVSS
VL: DIVMTQSQKFMSTSVGDRVSVTCKASQNVGTNVAWFQQKPGQSPKPLIYLASYRYSGVPDRFTGSGSGTDFTLTISNVQSEDLAEYFCQQYNSYPLTFGGGTNLEIKR
notes: Chimeric antibody expressed in 293F cells and purified on Protein A; also called B22抗体; SA120-2
binds: ROR2膜蛋白 | 带有His标签的人源的ROR2胞外端 | 内源性的ROR2 (293T细胞)

B2: A12嵌合抗体 (antibody, human IgG1, kappa, V domains shown)
VH: QVQLQQSGPELVKPGASVRMSCKAAGYTITSYLMHWVKQRPGQDLEWIGYINPYNDGTKYNEKFKDKATLTSDKSSSTAYMELSSLTSEDSAVYYCARSDVYYGVRFAYWGQGTLVTVSA
VL: DIVLTQSPAIMSASPGEKVTMTCSASSSVSYMHWYQQKSGTSPKRWIYDTSKLASGVPARFSGSGSGTSYSLTISSMEAEDAAIYYCQQWSSNPPTFGAGTKLELKR
notes: Chimeric antibody expressed in 293F cells and purified on Protein A; also called A12抗体; ROR2-A12
binds: ROR2膜蛋白 | 带有His标签的人源的ROR2胞外端 | 内源性的ROR2 (293T细胞)

B3: B30嵌合抗体 (antibody, human IgG1, kappa, V domains shown)
VH: QVQLQQSGPELVKPGASVRMSCKAAGYTFTSYLIHWVKQRPGQDLEWIGYINPYNDGTKYNEKFKDKATLTSDKSSSTAYMELSSLTSEDSAVYYCARSDVYYGVRFAYWGQGTLVTVSA
VL: DIVLTQSPVIMSASPGEKVTMTCSASSSISYMYWYQQKPGSSPRLLIYDTSILASGVPVRFSGSGSGTSYSLTISRMEAEDAATYYCQQWSSYPFTFGSGTKLEIKR
notes: Chimeric antibody expressed in 293F cells and purified on Protein A; also called B30抗体; ROR2-B30
binds: ROR2膜蛋白 | 带有His标签的人源的ROR2胞外端 | 内源性的ROR2 (293T细胞)
